This experiment has as its target CD4 on uninfected CEM-4 cells (human (endogenous in CEM-T4)) (UniProt P01730). Put plainly: flow cytometry on cells; uninfected CEM-4 cells incubated 2 h at 4°C with gp120MN (0.24 µg/ml), washed; bound gp120 detected with HIVIG (10 µg/ml) and anti-human secondary antibody; % of cells fluorescing. On the technique in general: In flow cytometry, cells or beads pass a laser one at a time.

Drawing on paper PMC2797330, this text covers % of cells positive (gp120 bound to cells, detected with HIVIG) for one substance.

Substance recombinant gp120MN (natural protein) showed a % of cells positive (gp120 bound to cells, detected with HIVIG) of 96.2 % positive.
